The term Km denotes the substrate concentration at which the rate is half of its maximum. A word on the kcat: it is the number of substrate molecules converted per active site and unit of time at saturation. The kcat/Km is the turnover number divided by the Michaelis constant.

The source of these data is publication PMC3720618, “Computational and Experimental Insights into the Mechanism of Substrate Recognition and Feedback Inhibition of Protoporphyrinogen Oxidase” (PLoS ONE, 2013).

Data set [1] has as its target T1, human protoporphyrinogen IX oxidase (hPPO) (Homo sapiens, UniProt P50336).
T1 construct: gene PPOX
T1 sequence (P50336 1-477): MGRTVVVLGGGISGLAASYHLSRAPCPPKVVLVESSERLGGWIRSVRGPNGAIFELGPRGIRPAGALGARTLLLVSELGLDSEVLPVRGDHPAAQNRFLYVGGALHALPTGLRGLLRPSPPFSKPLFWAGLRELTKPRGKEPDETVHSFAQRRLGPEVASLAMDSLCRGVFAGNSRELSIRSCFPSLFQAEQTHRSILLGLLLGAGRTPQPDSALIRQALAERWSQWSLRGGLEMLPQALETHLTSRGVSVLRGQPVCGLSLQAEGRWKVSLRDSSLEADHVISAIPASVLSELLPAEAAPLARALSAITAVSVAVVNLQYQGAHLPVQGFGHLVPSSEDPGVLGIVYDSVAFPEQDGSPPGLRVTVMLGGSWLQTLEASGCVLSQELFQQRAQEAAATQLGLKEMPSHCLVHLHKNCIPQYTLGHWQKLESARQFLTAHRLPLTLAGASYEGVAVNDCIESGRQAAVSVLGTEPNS
The data set can be described thus: fluorescence product-formation time courses showing feedback (product) inhibition. It is filed as biochemical.

Substrate in the data set “purified protein”: C=Cc1c2[nH]c(c1C)Cc1[nH]c(c(CCC(=O)O)c1C)Cc1[nH]c(c(C)c1CCC(=O)O)Cc1[nH]c(c(C)c1C=C)C2
The data set can be described thus: purified protein.

Substrate in data set [2]: C=Cc1c2[nH]c(c1C)Cc1[nH]c(c(CCC(=O)O)c1C)Cc1[nH]c(c(C)c1CCC(=O)O)Cc1[nH]c(c(C)c1C=C)C2
The data set can be described thus: continuous fluorometric enzyme kinetics on purified hPPO (Km). Format: biochemical, Homo sapiens. The conditions noted are these: FAD active site next to FAD; model: R97, L166, R168, G169, V170, F331, L334, M368.

On to `C=CC1=C(C)c2cc3[nH]c(cc4nc(cc5[nH]c(cc1n2)c(C)c5CCC(=O)O)C(CCC(=O)O)=C4C)c(C)c3C=C` [protoporphyrin IX], for which the “fluorescence product-formation time courses showing feedback (product) inhibitio” value in data set [1] is recorded as “The product inhibition phenomenon was obvious at low concentrations of PPO”.

B1: human protoporphyrinogen IX oxidase (hPPO) (Homo sapiens; L166N) (protein)
chain: MGRTVVVLGGGISGLAASYHLSRAPCPPKVVLVESSERLGGWIRSVRGPNGAIFELGPRGIRPAGALGARTLLLVSELGLDSEVLPVRGDHPAAQNRFLYVGGALHALPTGLRGLLRPSPPFSKPLFWAGLRELTKPRGKEPDETVHSFAQRRLGPEVASLAMDSNCRGVFAGNSRELSIRSCFPSLFQAEQTHRSILLGLLLGAGRTPQPDSALIRQALAERWSQWSLRGGLEMLPQALETHLTSRGVSVLRGQPVCGLSLQAEGRWKVSLRDSSLEADHVISAIPASVLSELLPAEAAPLARALSAITAVSVAVVNLQYQGAHLPVQGFGHLVPSSEDPGVLGIVYDSVAFPEQDGSPPGLRVTVMLGGSWLQTLEASGCVLSQELFQQRAQEAAATQLGLKEMPSHCLVHLHKNCIPQYTLGHWQKLESARQFLTAHRLPLTLAGASYEGVAVNDCIESGRQAAVSVLGTEPNS
On to B1, for which, in the data set “purified protein” (FAD substrate ring C), the Km was determined as 5.13 µM, the kcat was determined as 0.0303 ± 0.00217 s⁻¹ and the specificity constant (kcat/Km) amounted to 5830 M⁻¹ s⁻¹.

B2: human protoporphyrinogen IX oxidase (hPPO) (Homo sapiens; F331T) (protein)
chain: MGRTVVVLGGGISGLAASYHLSRAPCPPKVVLVESSERLGGWIRSVRGPNGAIFELGPRGIRPAGALGARTLLLVSELGLDSEVLPVRGDHPAAQNRFLYVGGALHALPTGLRGLLRPSPPFSKPLFWAGLRELTKPRGKEPDETVHSFAQRRLGPEVASLAMDSLCRGVFAGNSRELSIRSCFPSLFQAEQTHRSILLGLLLGAGRTPQPDSALIRQALAERWSQWSLRGGLEMLPQALETHLTSRGVSVLRGQPVCGLSLQAEGRWKVSLRDSSLEADHVISAIPASVLSELLPAEAAPLARALSAITAVSVAVVNLQYQGAHLPVQGTGHLVPSSEDPGVLGIVYDSVAFPEQDGSPPGLRVTVMLGGSWLQTLEASGCVLSQELFQQRAQEAAATQLGLKEMPSHCLVHLHKNCIPQYTLGHWQKLESARQFLTAHRLPLTLAGASYEGVAVNDCIESGRQAAVSVLGTEPNS
With B2, in “purified protein” (FAD substrate ring D), the Km amounted to 3.02 µM, the kcat stood at 0.151 ± 0.0127 s⁻¹ and the kcat/Km came to 50200 M⁻¹ s⁻¹.

B3: human protoporphyrinogen IX oxidase (hPPO) (Homo sapiens; L334V) (protein)
chain: MGRTVVVLGGGISGLAASYHLSRAPCPPKVVLVESSERLGGWIRSVRGPNGAIFELGPRGIRPAGALGARTLLLVSELGLDSEVLPVRGDHPAAQNRFLYVGGALHALPTGLRGLLRPSPPFSKPLFWAGLRELTKPRGKEPDETVHSFAQRRLGPEVASLAMDSLCRGVFAGNSRELSIRSCFPSLFQAEQTHRSILLGLLLGAGRTPQPDSALIRQALAERWSQWSLRGGLEMLPQALETHLTSRGVSVLRGQPVCGLSLQAEGRWKVSLRDSSLEADHVISAIPASVLSELLPAEAAPLARALSAITAVSVAVVNLQYQGAHLPVQGFGHVVPSSEDPGVLGIVYDSVAFPEQDGSPPGLRVTVMLGGSWLQTLEASGCVLSQELFQQRAQEAAATQLGLKEMPSHCLVHLHKNCIPQYTLGHWQKLESARQFLTAHRLPLTLAGASYEGVAVNDCIESGRQAAVSVLGTEPNS
With B3, in “purified protein” (FAD substrate ring D), the Km is given as 7.08 µM, the kcat stood at 0.853 ± 0.103 s⁻¹ and the kcat/Km stood at 120000 M⁻¹ s⁻¹.

B4: human protoporphyrinogen IX oxidase (hPPO) (Homo sapiens; V170T) (protein)
chain: MGRTVVVLGGGISGLAASYHLSRAPCPPKVVLVESSERLGGWIRSVRGPNGAIFELGPRGIRPAGALGARTLLLVSELGLDSEVLPVRGDHPAAQNRFLYVGGALHALPTGLRGLLRPSPPFSKPLFWAGLRELTKPRGKEPDETVHSFAQRRLGPEVASLAMDSLCRGTFAGNSRELSIRSCFPSLFQAEQTHRSILLGLLLGAGRTPQPDSALIRQALAERWSQWSLRGGLEMLPQALETHLTSRGVSVLRGQPVCGLSLQAEGRWKVSLRDSSLEADHVISAIPASVLSELLPAEAAPLARALSAITAVSVAVVNLQYQGAHLPVQGFGHLVPSSEDPGVLGIVYDSVAFPEQDGSPPGLRVTVMLGGSWLQTLEASGCVLSQELFQQRAQEAAATQLGLKEMPSHCLVHLHKNCIPQYTLGHWQKLESARQFLTAHRLPLTLAGASYEGVAVNDCIESGRQAAVSVLGTEPNS
Turning to B4, in “purified protein” (FAD substrate ring B), the Km is recorded as 2.97 µM, the kcat stood at 0.128 ± 0.011 s⁻¹ and the kcat/Km was 43200 M⁻¹ s⁻¹.

B5: human protoporphyrinogen IX oxidase (hPPO) (Homo sapiens) (protein)
chain: MGRTVVVLGGGISGLAASYHLSRAPCPPKVVLVESSERLGGWIRSVRGPNGAIFELGPRGIRPAGALGARTLLLVSELGLDSEVLPVRGDHPAAQNRFLYVGGALHALPTGLRGLLRPSPPFSKPLFWAGLRELTKPRGKEPDETVHSFAQRRLGPEVASLAMDSLCRGVFAGNSRELSIRSCFPSLFQAEQTHRSILLGLLLGAGRTPQPDSALIRQALAERWSQWSLRGGLEMLPQALETHLTSRGVSVLRGQPVCGLSLQAEGRWKVSLRDSSLEADHVISAIPASVLSELLPAEAAPLARALSAITAVSVAVVNLQYQGAHLPVQGFGHLVPSSEDPGVLGIVYDSVAFPEQDGSPPGLRVTVMLGGSWLQTLEASGCVLSQELFQQRAQEAAATQLGLKEMPSHCLVHLHKNCIPQYTLGHWQKLESARQFLTAHRLPLTLAGASYEGVAVNDCIESGRQAAVSVLGTEPNS
As to B5, in data set [2], the Km came to 2.08 µM, the kcat came to 0.0495 ± 0.0025 s⁻¹ and the kcat/Km was determined as 23800 M⁻¹ s⁻¹.

B6: human protoporphyrinogen IX oxidase (hPPO) (Homo sapiens; F331A) (protein)
chain: MGRTVVVLGGGISGLAASYHLSRAPCPPKVVLVESSERLGGWIRSVRGPNGAIFELGPRGIRPAGALGARTLLLVSELGLDSEVLPVRGDHPAAQNRFLYVGGALHALPTGLRGLLRPSPPFSKPLFWAGLRELTKPRGKEPDETVHSFAQRRLGPEVASLAMDSLCRGVFAGNSRELSIRSCFPSLFQAEQTHRSILLGLLLGAGRTPQPDSALIRQALAERWSQWSLRGGLEMLPQALETHLTSRGVSVLRGQPVCGLSLQAEGRWKVSLRDSSLEADHVISAIPASVLSELLPAEAAPLARALSAITAVSVAVVNLQYQGAHLPVQGAGHLVPSSEDPGVLGIVYDSVAFPEQDGSPPGLRVTVMLGGSWLQTLEASGCVLSQELFQQRAQEAAATQLGLKEMPSHCLVHLHKNCIPQYTLGHWQKLESARQFLTAHRLPLTLAGASYEGVAVNDCIESGRQAAVSVLGTEPNS
For the molecule B6, in “purified protein” (FAD substrate ring D), the Km is 6.60 µM, the kcat was determined as 0.0727 ± 0.0065 s⁻¹ and the kcat/Km amounted to 11000 M⁻¹ s⁻¹.

B7: human protoporphyrinogen IX oxidase (hPPO) (Homo sapiens; M368K) (protein)
chain: MGRTVVVLGGGISGLAASYHLSRAPCPPKVVLVESSERLGGWIRSVRGPNGAIFELGPRGIRPAGALGARTLLLVSELGLDSEVLPVRGDHPAAQNRFLYVGGALHALPTGLRGLLRPSPPFSKPLFWAGLRELTKPRGKEPDETVHSFAQRRLGPEVASLAMDSLCRGVFAGNSRELSIRSCFPSLFQAEQTHRSILLGLLLGAGRTPQPDSALIRQALAERWSQWSLRGGLEMLPQALETHLTSRGVSVLRGQPVCGLSLQAEGRWKVSLRDSSLEADHVISAIPASVLSELLPAEAAPLARALSAITAVSVAVVNLQYQGAHLPVQGFGHLVPSSEDPGVLGIVYDSVAFPEQDGSPPGLRVTVKLGGSWLQTLEASGCVLSQELFQQRAQEAAATQLGLKEMPSHCLVHLHKNCIPQYTLGHWQKLESARQFLTAHRLPLTLAGASYEGVAVNDCIESGRQAAVSVLGTEPNS
In the case of B7, in “purified protein” (FAD substrate ring A), the Km worked out at 5.63 µM, the kcat is 0.236 ± 0.0183 s⁻¹ and the kcat/Km stood at 42000 M⁻¹ s⁻¹.

B8: human protoporphyrinogen IX oxidase (hPPO) (Homo sapiens; G169A) (protein)
chain: MGRTVVVLGGGISGLAASYHLSRAPCPPKVVLVESSERLGGWIRSVRGPNGAIFELGPRGIRPAGALGARTLLLVSELGLDSEVLPVRGDHPAAQNRFLYVGGALHALPTGLRGLLRPSPPFSKPLFWAGLRELTKPRGKEPDETVHSFAQRRLGPEVASLAMDSLCRAVFAGNSRELSIRSCFPSLFQAEQTHRSILLGLLLGAGRTPQPDSALIRQALAERWSQWSLRGGLEMLPQALETHLTSRGVSVLRGQPVCGLSLQAEGRWKVSLRDSSLEADHVISAIPASVLSELLPAEAAPLARALSAITAVSVAVVNLQYQGAHLPVQGFGHLVPSSEDPGVLGIVYDSVAFPEQDGSPPGLRVTVMLGGSWLQTLEASGCVLSQELFQQRAQEAAATQLGLKEMPSHCLVHLHKNCIPQYTLGHWQKLESARQFLTAHRLPLTLAGASYEGVAVNDCIESGRQAAVSVLGTEPNS
On to B8, for which, in “purified protein” (FAD substrate ring C), the Km is 2.16 µM, the kcat was determined as 0.00617 ± 0.000667 s⁻¹ and the kcat/Km stood at 2830 M⁻¹ s⁻¹.

B9: human protoporphyrinogen IX oxidase (hPPO) (Homo sapiens; R168S) (protein)
chain: MGRTVVVLGGGISGLAASYHLSRAPCPPKVVLVESSERLGGWIRSVRGPNGAIFELGPRGIRPAGALGARTLLLVSELGLDSEVLPVRGDHPAAQNRFLYVGGALHALPTGLRGLLRPSPPFSKPLFWAGLRELTKPRGKEPDETVHSFAQRRLGPEVASLAMDSLCSGVFAGNSRELSIRSCFPSLFQAEQTHRSILLGLLLGAGRTPQPDSALIRQALAERWSQWSLRGGLEMLPQALETHLTSRGVSVLRGQPVCGLSLQAEGRWKVSLRDSSLEADHVISAIPASVLSELLPAEAAPLARALSAITAVSVAVVNLQYQGAHLPVQGFGHLVPSSEDPGVLGIVYDSVAFPEQDGSPPGLRVTVMLGGSWLQTLEASGCVLSQELFQQRAQEAAATQLGLKEMPSHCLVHLHKNCIPQYTLGHWQKLESARQFLTAHRLPLTLAGASYEGVAVNDCIESGRQAAVSVLGTEPNS
B9: in “purified protein” (FAD substrate ring A), the Km was determined as 11.33 µM, the turnover number (kcat) was 0.0553 ± 0.00367 s⁻¹ and the kcat/Km amounted to 4830 M⁻¹ s⁻¹.
